# Patent US20230220095A1 (ALETA BIOTHERAPEUTICS, published 2023)
# Where “and” joins values, the source holds several entries; their conditions need not be identical. Equal values may be shown once.
# B1: BCMA-anti-CD38 fusion protein, construct #494 (BCMA ECD C-terminal to the anti-CD38 scFv, C-terminal His tag) (other)
# chain: DIQMTQSPSSLSASVGDRVTITCRASQGIRSWLAWYQQKPEKAPKSLIYAASSLQSGVPSRFSGSGSGTDFTLTISSLQPEDFATYYCQQYNSYPLTFGGGTKVEIKGGGGSGGGGSGGGGSGGGGSQVQLVQSGAEVKKPGSSVKVSCKAFGGTFSSYAISWVRQAPGQGLEWMGRIIRFLGIANYAQKFQGRVTLIADKSTNTAYMELSSLRSEDTAVYYCAGEPGERDPDAVDIWGQGTMVTVSSGGGGSGGGGSGGGGSGGGGSMLQMAGQCSQNEYFDSLLHACIPCQLRCSSNTPPLTCQRYCNASVTNSVKGTNAHHHHHH
# notes: also called A494
# B2: BCMA-anti-CD38 fusion protein, construct #493 (BCMA ECD N-terminal to the anti-CD38 scFv, C-terminal His tag) (other)
# chain: MLQMAGQCSQNEYFDSLLHACIPCQLRCSSNTPPLTCQRYCNASVTNSVKGTNAGGGGSGGGGSGGGGSGGGGSDIQMTQSPSSLSASVGDRVTITCRASQGIRSWLAWYQQKPEKAPKSLIYAASSLQSGVPSRFSGSGSGTDFTLTISSLQPEDFATYYCQQYNSYPLTFGGGTKVEIKGGGGSGGGGSGGGGSGGGGSQVQLVQSGAEVKKPGSSVKVSCKAFGGTFSSYAISWVRQAPGQGLEWMGRIIRFLGIANYAQKFQGRVTLIADKSTNTAYMELSSLRSEDTAVYYCAGEPGERDPDAVDIWGQGTMVTVSSHHHHHH
# notes: also called A493; N-terminal construct
# B3: anti-GPRC5D scFv-BCMA ECD-His fusion protein, construct 536 (other)
# chain: QSVLTQPASVSGSPGQSLTISCTGTSNDVGAYKYVSWYQQYPGKAPKLILYDVFKRPSGVSNRFSGSKSDNTASLTISGLQAEDEADYYCFSLTSSNTYVFGTGTKVTVLGSRGGGGSGGGGSGGGGSLEMAQMQLVQSGAEVKKPGASVKVSCKASGYTFNRYAITWVRQAPGQGLEWMGWISAYNGNSHYAQKLQGRVTMTTDTSTGTAYMELRRLRSDDTAVYYCARMAYDSWGQGTLVTVSSGGGGSGGGGSMLQMAGQCSQNEYFDSLLHACIPCQLRCSSNTPPLTCQRYCNASVTNSVKGTNAHHHHHH
# notes: scFv of construct 522 - linker - BCMA ECD - His; Tested as HEK supernatant; also called A536; anti-GPRC5D-BCMA fusion protein
# B4: anti-GPRC5D scFv-BCMA ECD-His fusion protein, construct 539 (other)
# chain: QSVVTQPPSMSAAPGQQVTISCSGGNSNIERNYVSWYLQLPGTAPKLVIFDNDRRPSGIPDRFSGSKSGTSATLGITGLQTGDEADYYCGTWDSSLRGWVFGGGTKLTVLGSRGGGGSGGGGSGGGGSLEMAEVQLVESGGGLIQPGGSLRLSCAASGFTFSNYAMNWVRQAPGKGLEWVSTINGRGSSTIYADSVKGRFTISRDNSKNTLYLQMNSLRAEDTATYYCARYISRGLGDSWGQGTLVTVSSGGGGSGGGGSGGGGSMLQMAGQCSQNEYFDSLLHACIPCQLRCSSNTPPLTCQRYCNASVTNSVKGTNAHHHHHH
# notes: scFv of construct 525 - G4Sx3 linker - BCMA ECD - His; Tested as HEK supernatant; also called A539; anti-GPRC5D-BCMA fusion protein
# B5: anti-GPRC5D scFv-BCMA ECD-His fusion protein, construct 537 (other)
# chain: QSVLTQPPSASGTPGQRVTISCSGSRSNVGGNYVFWYQQVPGATPKLLIYRSNQRPSGVPDRFAGSKSGSSASLAISGLRSEDEADYYCATWDDSLSGFVFGTGTKVTVLGSRGGGGSGGGGSGGGGSLEMAEVQLVESGGGLVKPGGSLRLSCAASGFTFSDYYMSWIRQAPGKGLEWVSYISSSGSTIYYADSVKGRFTISRDNAKNSLYLQMNSLRAEDTAVYYCARGYGKAYDQWGQGTLVTVSSGGGGSGGSMLQMAGQCSQNEYFDSLLHACIPCQLRCSSNTPPLTCQRYCNASVTNSVKGTNAHHHHHH
# notes: scFv of construct 523 - linker - BCMA ECD - His; Tested as HEK supernatant; also called A537; anti-GPRC5D-BCMA fusion protein
# B6: anti-GPRC5D scFv-BCMA ECD-His fusion protein, construct 538 (other)
# chain: SSELTQDPAVSVALGQTVRITCQGDSLRSYYASWYQQKPGQAPVLVIYGKNNRPSGIPDRFSGSSSGNTASLTITGAQAEDEADYYCNSRDSSGNPPVVFGGGTKLTVLGSRGGGGSGGGGSGGGGSLEMAQVQLVESGGGLVHPGGSLRLSCAASGFTFRSHSMNWVRQAPGKGLEWVSSISSDSTYTYYADSVKGRFTISRDNAKNSLYLQMNSLRAEDTAVYYCARSGGQWKYYDYWGQGTLVTVSSGGGGSGGGGSGGGGSMLQMAGQCSQNEYFDSLLHACIPCQLRCSSNTPPLTCQRYCNASVTNSVKGTNAHHHHHH
# notes: scFv of construct 524 - G4Sx3 linker - BCMA ECD - His; also called A538; bridging protein #538
# B7: anti-GPRC5D scFv, construct 525 (scFv)
# scFv: QSVVTQPPSMSAAPGQQVTISCSGGNSNIERNYVSWYLQLPGTAPKLVIFDNDRRPSGIPDRFSGSKSGTSATLGITGLQTGDEADYYCGTWDSSLRGWVFGGGTKLTVLGSRGGGGSGGGGSGGGGSLEMAEVQLVESGGGLIQPGGSLRLSCAASGFTFSNYAMNWVRQAPGKGLEWVSTINGRGSSTIYADSVKGRFTISRDNSKNTLYLQMNSLRAEDTATYYCARYISRGLGDSWGQGTLVTVSSHHHHHH
# notes: VL-G4Sx3-VH-His; Tested as HEK293 supernatant; also called A525
# B8: anti-GPRC5D scFv, construct 523 (scFv)
# scFv: QSVLTQPPSASGTPGQRVTISCSGSRSNVGGNYVFWYQQVPGATPKLLIYRSNQRPSGVPDRFAGSKSGSSASLAISGLRSEDEADYYCATWDDSLSGFVFGTGTKVTVLGSRGGGGSGGGGSGGGGSLEMAEVQLVESGGGLVKPGGSLRLSCAASGFTFSDYYMSWIRQAPGKGLEWVSYISSSGSTIYYADSVKGRFTISRDNAKNSLYLQMNSLRAEDTAVYYCARGYGKAYDQWGQGTLVTVSSHHHHHH
# notes: VL-G4Sx3-VH-His; Tested as HEK293 supernatant; also called A523
# B9: anti-GPRC5D scFv, construct 522 (scFv)
# scFv: QSVLTQPASVSGSPGQSLTISCTGTSNDVGAYKYVSWYQQYPGKAPKLILYDVFKRPSGVSNRFSGSKSDNTASLTISGLQAEDEADYYCFSLTSSNTYVFGTGTKVTVLGSRGGGGSGGGGSGGGGSLEMAQMQLVQSGAEVKKPGASVKVSCKASGYTFNRYAITWVRQAPGQGLEWMGWISAYNGNSHYAQKLQGRVTMTTDTSTGTAYMELRRLRSDDTAVYYCARMAYDSWGQGTLVTVSSHHHHHH
# notes: VL-G4Sx3-VH-His; Tested as HEK293 supernatant; also called A522
# B10: anti-GPRC5D scFv, construct 524 (scFv)
# scFv: SSELTQDPAVSVALGQTVRITCQGDSLRSYYASWYQQKPGQAPVLVIYGKNNRPSGIPDRFSGSSSGNTASLTITGAQAEDEADYYCNSRDSSGNPPVVFGGGTKLTVLGSRGGGGSGGGGSGGGGSLEMAQVQLVESGGGLVHPGGSLRLSCAASGFTFRSHSMNWVRQAPGKGLEWVSSISSDSTYTYYADSVKGRFTISRDNAKNSLYLQMNSLRAEDTAVYYCARSGGQWKYYDYWGQGTLVTVSSHHHHHH
# notes: VL-G4Sx3-VH-His; Tested as HEK293 supernatant; also called A524
# Molecular target: T1, CD38 on Daudi cells (human, UniProt P28907 1-300)
# T1 construct: whole, on cells; Endogenous CD38 of Daudi cells
# Test: flow cytometry, titration of fusion protein supernatant on Daudi cells (CD38), a-BCMA-PE detection, % Binding
# Protocol: (§1) Daudi cells were obtained from ATCC and cultured in RPMI containing 10% FCS. They were stained for BCMA using anti-BCMA-PE labeled antibody (BioLegend, #357504) and for CD38 using anti-CD38-PE labeled antibody (BioLegend, #356604), or stained with BCMA-containing fusion proteins as described herein. The cells were incubated with antibody or supernatant from A493 or A494 producing cells as follows. The Daudi cells were blocked with human Fc block (BD Biosciences, #BDB564129) for 10 minutes, washed and then diluted to 5×10e5 cells per 50 µl. For each sample, 50 µl of cells was aliquoted per well. For the direct stains, 5 µl of antibody in 50 µl was incubated with the cells for 30 minutes at 4° C. After washing with FACS buffer (FB: PBS, 1% BSA, 0.1% sodium azide), the cells were fixed with a final concentration of 2% paraformaldehyde in FB. For the BCMA fusion protein binding, 50 µl of A493 or A494 supernatant or 3x serial dilution of the supernatant in FB, was added and incubated for 30 minutes at 4° C. The cells were washed 2 times with FB and then stained with anti-His-PE antibody (R&D systems, #ICO5OP) or anti-BCMA-PE antibody (BioLegend, #357504) for 30 minutes at 4° C., the cells were pelleted and washed 2 times in FB and then fixed as above. The samples were analyzed on a BD Accuri 6 flow cytometer and analyzed using BD Accuri 6 software.
row,Binder,EC50
1,B1,0.0123 µg/mL and 0.364 nM
2,B2,0.0056 µg/mL and 0.165 nM

# Molecular target: T2, GPRC5D expressed on transfected HEK293 / 293T cells (UniProt Q9NZD1 1-345, limits assumed)
# T2 construct: whole, on cells
# Test: flow cytometry, titration of fusion protein supernatant on GPRC5D-transfected HEK293 cells, anti-BCMA detection, % Binding
# T2 sequence (Q9NZD1 whole entry): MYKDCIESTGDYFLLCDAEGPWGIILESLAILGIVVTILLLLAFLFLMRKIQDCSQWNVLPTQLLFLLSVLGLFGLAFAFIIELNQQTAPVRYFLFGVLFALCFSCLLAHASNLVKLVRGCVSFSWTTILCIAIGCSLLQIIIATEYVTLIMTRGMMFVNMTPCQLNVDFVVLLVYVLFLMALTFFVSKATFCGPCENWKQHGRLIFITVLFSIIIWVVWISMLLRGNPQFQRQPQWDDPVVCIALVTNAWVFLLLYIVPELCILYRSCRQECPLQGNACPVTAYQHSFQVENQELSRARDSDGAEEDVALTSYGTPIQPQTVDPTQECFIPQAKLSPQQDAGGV
row,Binder,EC50
1,B3,0.00509 µg/mL and 0.152 nM
2,B4,0.00669 µg/mL and 0.198 nM
3,B5,0.00553 µg/mL and 0.166 nM
4,B6,0.00225 µg/mL and 0.067 nM

# Molecular target: T2, GPRC5D expressed on transfected HEK293 …
# Test: binding of HEK293 supernatants to GPRC5D-expressing HEK293 cells
row,Binder,binding result
1,B7,binds
2,B8,binds
3,B9,binds
4,B10,binds

# Molecular target: T1, CD38 on Daudi cells
# Test: flow cytometry, titration of fusion protein supernatant on Daudi cells (CD38), a-His-PE detection, % Binding
# Protocol: as §1
row,Binder,EC50
1,B1,0.00315 µg/mL and 0.093 nM
2,B2,0.00218 µg/mL and 0.0642 nM

# Molecular target: T2, GPRC5D expressed on transfected HEK293 …
# Test: flow cytometry, titration of fusion protein supernatant on GPRC5D-transfected HEK293 cells, anti-His detection, % Binding
row,Binder,EC50
1,B3,0.86 nM and 0.0287 µg/mL
2,B4,0.0193 µg/mL and 0.572 nM
3,B5,0.0156 µg/mL and 0.469 nM
4,B6,0.00608 µg/mL and 0.182 nM
